Laboratory results taken from the Immune Epitope Database (IEDB).
pIC50, pKd: −log10 of the molar value.

Tests used:
[1] = target: HLA-A*29:02; assay: IEDB peptide-MHC binding, purified MHC/competitive/fluorescence; filed as Kd, often an IC50 or EC50 that approximates it; ≥ and ≤ were set here for values at or beyond the usual limits of such assays; settings: source organism: Crocodilepox virus
[2] = target: HLA-B*83:01; assay: as above; settings: source organism: Crocodilepox virus
[3] = target: HLA-A*32:07; assay: as above; settings: source organism: Crocodilepox virus
[4] = target: HLA-B*15:42; assay: as above; settings: source organism: Crocodilepox virus
[5] = target: HLA-B*45:06; assay: as above; settings: source organism: Crocodilepox virus
[6] = target: HLA-A*26:03; assay: as above; settings: source organism: Vaccinia virus WR
[7] = target: HLA-B*15:17; assay: as above; settings: source organism: Vaccinia virus WR
[8] = target: HLA-B*15:01; assay: as above; settings: source organism: Vaccinia virus WR
[9] = target: HLA-B*35:01; assay: as above; settings: source organism: Vaccinia virus WR
[10] = target: HLA-A*26:02; assay: as above
[11] = target: HLA-A*26:01; assay: as above; settings: source organism: Vaccinia virus WR
[12] = target: HLA-B*48:01; assay: IEDB peptide-MHC binding, purified MHC/direct/fluorescence; filed as Kd, often an IC50 or EC50 that approximates it; ≥ and ≤ were set here for values at or beyond the usual limits of such assays
[13] = target: HLA-B*08:01; assay: as above
[14] = target: HLA-A*01:01; assay: as above
[15] = target: HLA-B*46:01; assay: as above
[16] = target: HLA-B*58:01; assay: as above
[17] = target: HLA-A*69:01; assay: as above
[18] = target: HLA-A*03:01; assay: as above
[19] = target: HLA-B*40:01; assay: as above; settings: source organism: Camelpox virus M-96
[20] = target: HLA-A*68:02; assay: as above; settings: source organism: Camelpox virus M-96
[21] = target: HLA-B*27:05; assay: as above
[22] = target: HLA-A*80:01; assay: as above; settings: source organism: Camelpox virus M-96
[23] = target: HLA-A*31:01; assay: as above; settings: source organism: Camelpox virus M-96
[24] = target: HLA-A*02:01; assay: as above
[25] = target: HLA-B*07:02; assay: as above
[26] = target: HLA-B*57:01; assay: as above
[27] = target: HLA-A*11:01; assay: as above; settings: source organism: Camelpox virus M-96
[28] = target: HLA-B*08:03; assay: as above
[29] = target: HLA-A*01:01; assay: IEDB peptide-MHC binding, purified MHC/competitive/fluorescence; ≥ and ≤ were set here for values at or beyond the usual limits of such assays; settings: source organism: Vaccinia virus WR
[30] = target: HLA-A*03:01; assay: as above; settings: source organism: Vaccinia virus WR
[31] = target: HLA-B*15:01; assay: as above; settings: source organism: Vaccinia virus WR
[32] = target: HLA-A*24:02; assay: as above; settings: source organism: Vaccinia virus WR
[33] = target: HLA-A*02:01; assay: as above; settings: source organism: Vaccinia virus WR
[34] = target: HLA-A*11:01; assay: as above; settings: source organism: Vaccinia virus WR
[35] = target: HLA-B*15:09; assay: IEDB peptide-MHC binding, purified MHC/competitive/fluorescence; filed as Kd, often an IC50 or EC50 that approximates it; ≥ and ≤ were set here for values at or beyond the usual limits of such assays; settings: source organism: Bacillus anthracis str. A0488
[36] = target: HLA-A*68:02; assay: as above; settings: source organism: Bacillus anthracis str. A0488
[37] = target: HLA-B*39:01; assay: as above; settings: source organism: Bacillus anthracis str. A0488
[38] = target: HLA-A*11:01; assay: as above; settings: source organism: Bacillus anthracis str. A0488
[39] = target: HLA-B*08:02; assay: IEDB peptide-MHC binding, purified MHC/direct/fluorescence; filed as Kd, often an IC50 or EC50 that approximates it; ≥ and ≤ were set here for values at or beyond the usual limits of such assays; settings: source organism: Bacillus cereus 03BB108
[40] = target: HLA-A*26:03; assay: as above; settings: source organism: Bacillus cereus 03BB108
[41] = target: HLA-A*02:19; assay: as above; settings: source organism: Bacillus cereus 03BB108
[42] = target: HLA-A*02:12; assay: as above; settings: source organism: Bacillus cereus 03BB108
[43] = target: HLA-B*15:17; assay: as above; settings: source organism: Bacillus anthracis
[44] = target: HLA-B*15:01; assay: as above; settings: source organism: Bacillus anthracis
[45] = target: HLA-B*35:01; assay: as above; settings: source organism: Bacillus cereus 03BB108
[46] = target: HLA-B*15:02; assay: as above; settings: source organism: Bacillus cereus 03BB108
[47] = target: HLA-A*02:11; assay: as above; settings: source organism: Bacillus cereus 03BB108
[48] = source organism: Camelpox virus M-96
[49] = source organism: Bacillus anthracis
[50] = source organism: Bacillus cereus 03BB108

For RVRSMANVY, the pKd [1] was 7.82, the pKd [2] was ≤ 5.30 and the pKd [3] was 7.80. The pKd [4] was ≤ 5.30 and the pKd [5] was ≤ 5.30.

In the case of SLFTEQAFY, the pKd [6] was ≤ 4.70, the pKd [7] was ≤ 4.70 and the pKd [8] was 6.02. For the same sequence, the pKd [9] was 5.94, the pKd ([10]; source organism: Vaccinia virus WR) was ≤ 4.70 and the pKd [11] was ≤ 5.30. For the same sequence, the pKd [12, 48] was ≤ 4.70, the pKd ([13]; source organism: Variola virus) was ≤ 4.70 and the pKd [14, 48] was ≤ 4.70. The pKd [15, 48] was ≤ 4.70, the pKd ([16]; source organism: Variola virus) was ≤ 4.70 and the pKd [17, 48] was ≤ 4.70. The pKd [18, 48] was 5.36, the pKd [19] was ≤ 4.70 and the pKd [20] was ≤ 4.70. The pKd [21, 48] was ≤ 4.70, the pKd [22] was 8.07 and the pKd [23] was ≤ 4.70. The pKd [24, 48] was ≤ 4.70, the pKd [25, 48] was ≤ 4.70 and the pKd [26, 48] was ≤ 4.70. For the same sequence, the pKd [27] was 5.95, the pKd ([28]; source organism: Variola virus) was ≤ 4.70 and the pIC50 [29] was 4.50. The pIC50 [30] was 5.15, the pIC50 [31] was 5.41 and the pIC50 [32] was 4.51. The pIC50 [33] was 4.83 and the pIC50 [34] was 5.11.

For KVQEWYLSY, the pKd [35] was ≤ 4.70, the pKd [36] was 5.47 and the pKd [37] was 7.06. The pKd ([10]; source organism: Bacillus anthracis str. A0488) was 5.92, the pKd [38] was 7.37 and the pKd [12, 49] was ≤ 4.70. The pKd [13, 50] was ≤ 4.70, the pKd [39] was ≤ 4.70 and the pKd [14, 49] was ≤ 5.30. For the same sequence, the pKd [15, 49] was ≤ 4.70, the pKd [16, 49] was 5.44 and the pKd [17, 49] was 4.82. The pKd [18, 49] was 6.88, the pKd [40] was ≤ 4.70 and the pKd [41] was ≤ 4.70. It also gave a pKd [42] of 5.79, a pKd [43] of 6.92 and a pKd [44] of 6.35. The pKd [45] was 5.69, the pKd [21, 49] was 7.29 and the pKd [24, 49] was 4.84. For the same sequence, the pKd [25, 49] was 5.26, the pKd [26, 49] was ≤ 4.70 and the pKd [46] was 5.83. For the same sequence, the pKd [47] was 6.51 and the pKd [28, 50] was 6.49.
